# Laboratory results published in patent US20150044137A1.
# Changes are numbered by the printed parent chain.
# B1: VRC13c (antibody, V domains shown)
# VH: QLQLDQPGAAMKSLGSSLTITCRVSGDDLGSFHFGTYFMIWVRQGPGQGLEYMGGILPSTKTPTYAHKFRGRVSISAPGVPPVLSLALTNLTYDDTATYFCARERGRHFEPKNRDHLEGKFLDLWGRGTFVRVSP
# VL: QSVLTQPASVSGSPGQSINISCAGRSDRVSWYQQRPNGVPKLLLFDVYRRPSGVSDRFSGSHSDDTAFLTISGLQTDDEADYYCTSHPYAFGPGTKVNVL
# B2: VRC13e (antibody, V domains shown)
# V domain 1: QPYIVQSGPAVKGAGSSVTVTCKVDGDDDGIFSFGTYFMVWVRQAPGQGLQYMGGLVPSYAPTYAHKFEGRITISAAGTPPVVSLTLLNLTNDDAATYFCARERGRHYDSKTRENRRGRYFDMWGRGTRITVSP
# V domain 2: QSVLTQPASVSGSPGQTISISCSGTFGSDSVSWYQQYPNSAPTLIIFDVHRRPSGISTRFSGSTSGDTASLTISTLHREDEAYYYCTSHPYDFGGGTYVIVL
# B3: VRC13b (antibody, V domains shown)
# VH: QVQLVQSGTALKSPGSSAKLSCTVLGDEFGTYFISWIRQAPGQGLEWVGGIVPHSQLQSSAQKFHGRIIISAGAGVTPPVVSLQLTNLTFEDTGTYFCARERGRHRDPKTGDALRGRYFDFWGRGTGVSVSA
# VL: QSVLTQPAFVSGSPGQSITLSCTLGTEDVSWYQQRPNSAPRLIIFDVKKRPSDVSDRFSGHNSDTAAFLTISELRPEDEAEYFCTSWPYRFGRGTKVDVA
# B4: VRC13d (antibody, V domains shown)
# VH: QVQLVQSGAVVKSPGSSAKLSCRLLGDEFGTYFISWIRQAPGRGLEWVGGIVPHSQLQSSAQKFHGRFFITGGVTPPIIFLQLTNVTFEDTGTYFCARERGRHRDPKTGKSLRGRYFDFWGRGTGVTVSP
# VL: QSVLTQPAFVSASPGQSITLSCNLGTDYVSWYQQRPSSAPRLIIFDVKNRPSGVSDRFSGYNSDTAAFLTISGLQPEDEAEYYCTSWPYNFGPGTKVDVT
# B5: VRC13f (antibody, V domains shown)
# V domain 1: B2 V domain 1 with K23R, S33N, L88I, D93A
# V domain 2: B2 V domain 2 with Y37F, Y83F
# B6: VRC13g (antibody, V domains shown)
# VH: QIELRQSGAAMKSPGSSVKLSCTVLGENFGTYFISWIRQAPGQGLEWVGGIVPHSQLQSSAQKFHGRIKISGGGTPPVVSLELTNVTFDDTGTYFCARERGRHVEPKTGDRLAGRYFDIWGRGTGLRVSP
# VL: QSVLTQPAFVSGSPGQSITISCTVGTTDVSWYQQRPNSAPRLIIFDVKKRPSGVSDRFSGSSSDNAAFLTIAGLRPEDEAEYYCTSWPYRFGRGTKVDVG
# Assays:
# [1] = target: RSC3 probe; assay: ELISA-type plate assay (OD450), mAb titrated on RSC3 [panel VRC13c]
# [2] = target: RSC3 probe; assay: ELISA-type plate assay (OD450), mAb titrated on RSC3 [panel VRC13e]
# [3] = target: RSC3 probe; assay: ELISA-type plate assay (OD450), mAb titrated on RSC3 [panel VRC13b]
# [4] = target: RSC3 probe; assay: ELISA-type plate assay (OD450), mAb titrated on RSC3 [panel VRC13d]
# [5] = target: RSC3 probe; assay: ELISA-type plate assay (OD450), mAb titrated on RSC3 [panel VRC13f]
# [6] = target: RSC3 probe; assay: ELISA-type plate assay (OD450), mAb titrated on RSC3 [panel VRC13g]
binder,measurement,setting,value
B1,EC50 (read off the curve),[1],0.02 µg/mL
B2,EC50 (read off the curve),[2],0.02 µg/mL
B3,EC50 (read off the curve),[3],0.02 µg/mL
B4,EC50 (read off the curve),[4],0.02 µg/mL
B5,EC50 (read off the curve),[5],0.02 µg/mL
B6,EC50 (read off the curve),[6],0.02 µg/mL
